# Columns and labels:
# Assay type in all cases: in vivo, mice
# plasma Gal3 = assay: HOCI-induced murine fibrosis model: plasma Gal3 (ELISA); settings: first experiment, day 42; FIG. 10
# Method: In a first experiment, control mice (n=12) received a daily intradermal injection of 300 μL of sterile phosphate buffer saline (PBS) for 5 consecutive days per week, for a duration of 42 days. HOCI alone and HOCI with antibody (HOCI-antibody) treated mice (n=12 per group) received a daily intradermal injection of 300 μL of HOCI for 5 consecutive days per week, for a duration of 42 days. Antibody-treated mice also received a subcutaneous injection of 20 mg/kg antibody, starting at day minus one and every 5 days between day 5 and day 40. Each antibody was solubilized in sterile, endotoxin-free PBS before injection. In a second experiment, the same protocol was applied, except that duration of the study was 63 days and antibodies were given every 7 days starting at day minus 1 until day 62.
# Mice that received daily injection of HOCI were also treated by intratracheal instillation of 0.5 mg/kg of TD139 compound (HOCI-TD139), a small molecule Gal3 inhibitor. In a first experiment, the administrations started from day 21 and the compound was given every 3 days until day 39. In a second experiment, the administrations started from day 20 and the compound was given every 3 days until day 62. TD139 was initially dissolved in 100% DMSO then diluted 50-fold in endotoxin-free PBS before administration.
# In the first experiment, the plasma levels of Gal3 were measured at day minus 1 (before antibody administration) and at termination day (day 42) using a mouse Galectin-3 DuoSet ELISA kit (R&D Systems, DY1197) according to the manufacturer's instructions. Plasma samples were diluted 1:200 in order to fit with the dynamic range of the assay.
# [1] = tested on: murine model of HOCI-induced fibrosis; assay: HOCI-induced murine fibrosis model: skin thickness
# [2] = tested on: murine model of bleomycin-induced fibrosis; assay: Bleomycin-induced murine lung fibrosis model: body weight and body weight metrics
# Method: Control bleomycin mice named ‘Bleo’ received an administration of 1.65 mg/kg bleomycin by the oropharyngeal route on Day 1. […] Antibody-treated mice also received an administration of 1.65 mg/kg bleomycin by the oropharyngeal route on Day 1 and a subcutaneous injection of 20 mg/kg antibody, starting on day minus one and on days 4, 8, 12, 16 and 20. Each antibody was solubilized in sterile, endotoxin-free PBS before injection. Mice that received bleomycin were also treated by oropharyngeal administration of 0.5 mg/kg of TD139 compound (Bleo-TD139), a small molecule Gal3 inhibitor, starting on day 12 and every 2 days until day 20. TD139 was initially dissolved in 100% DMSO.
# Mice were weighed daily. Their growth curves are represented on FIG. 12. Control mice had normal growth with a mean percent increase of 6.4% of their initial body weight measured on day minus 1.
# Body weight metrics were assessed by using two parameters called Time to weight growth (TWG) and Time to baseline (TTB), shown on FIG. 13. Time to weight growth corresponds to the point of inflection when mice show an ascending growth curve and start to regain weight within the course of the experiment. Time to baseline corresponds to the number of days required for mice to recover their initial body weight (day minus 1). The median TWG was 10 days for the untreated bleomycin group. […] TD139 compound had no efficacy on this parameter (p-value 0.53).
# [3] = bleomycin 1.65 mg/kg, antibody 20 mg/kg s.c.
molecule,measurement,setting,value
"E07: anti-Gal3 monoclonal antibody, IgG1 format; VH SEQ ID NO 42, VL SEQ ID NO 43 (antibody, V domains shown) VH: EVQLVESGGSLVKPGGSLRLSCAASGFTFSNYNMNWVRQAPGKGLEWISNIYGSSRYIYYADFVKGRFTISRDNAKNSLYLQMNSLRAEDTAVYYCVRSYYGGMDVWGRGTLVTVSS VL: QSVLTQPASVSGSPGQSITISCAGTSSDVGGYYSVSWYQQHPGKAPKLMIYYDSNRPSGVSNRFSGSKSGNTASLTISGLQAEDEADYYCSSYTGYSTRVFGGGTKLEIK",plasma Gal3 levels,plasma Gal3,restored the plasma Gal3 levels to values similar to those of the control group
same,HOCI-induced increase in skin thickness,"[1]; first experiment, 42 days, antibody 20 mg/kg s.c., TD139 0.5 mg/kg intratracheal, vs HOCI group, FIG. 7A",significantly reduced
same,day from which reduction of skin thickness was significant,"[1]; first experiment, sustained effect until day 42",21 days
same,HOCI-induced increase in skin thickness,"[1]; second experiment, 63 days, antibody 20 mg/kg s.c. every 7 days, sustained effect until day 63, FIG. 7B",significantly reduced
same,day from which reduction of skin thickness was significant,"[1]; second experiment, sustained effect until day 63",7 days
same,body weight status on day 21,[2]; [3],full weight recovery
same,day from which body weight reached values close to those of control mice,[2]; [3],18 days
same,recovery of body weight,"[2]; bleomycin 1.65 mg/kg, antibody 20 mg/kg s.c., FIG. 12",more rapid recovery of body weight
same,reduction of median Time to weight growth (TWG),"[2]; median TWG 10 days for untreated bleomycin group, FIG. 13",2 days

# Source: patent publication US20250215091A1, “Anti-GAL3 Antibodies and Compositions” (Les Laboratoires Servier, priority 2022, published 2025)
